Assay [1] concerns the target T1, BoNT-A C-fragment (UniProt P0DPI0 871-1296). The assay is described as follows: SPR (BIAcore), purified scFv.
For assay [2], the target named is T1, BoNT-A C-fragment. The assay is described as follows: SPR (BIAcore), purified scFv; Kd calculated as koff/kon.

T1 sequence (P0DPI0 871-1296): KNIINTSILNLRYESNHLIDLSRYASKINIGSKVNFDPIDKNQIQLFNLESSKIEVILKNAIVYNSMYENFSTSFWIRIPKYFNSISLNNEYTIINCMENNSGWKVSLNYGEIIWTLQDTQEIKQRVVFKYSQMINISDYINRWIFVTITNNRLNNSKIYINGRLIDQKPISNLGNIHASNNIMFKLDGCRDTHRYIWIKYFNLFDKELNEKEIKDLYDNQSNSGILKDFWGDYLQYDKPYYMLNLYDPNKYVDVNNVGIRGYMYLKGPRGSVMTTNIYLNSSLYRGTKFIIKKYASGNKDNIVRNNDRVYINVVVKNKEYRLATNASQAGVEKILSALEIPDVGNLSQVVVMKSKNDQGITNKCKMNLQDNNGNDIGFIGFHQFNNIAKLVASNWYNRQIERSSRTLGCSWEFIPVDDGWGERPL

B1: anti-BoNT-A scFv 2B6 (scFv)
chain: VKLVESGPGLVKPSQSLSLTCTVTGYSITSDYAWNWIRQFPGNKLEWMGYINYDGSNNYNPSLKNRISITRDTSKNQFFLKLNSVTSEDTATYYCARAGDGYYVDWYFDVWGTGTTVIVSSGGGGSGGGGSGGGGSYIELTQSPASLAVSLGQRATTSCRASESVDSYGNSFMHWYQQKPGQPPKLLIYLASNLESGVPARFSGSGSRTDFTLTIDPVEADDAATYYCQQNNEDPYTFGGGTKLEIKS
As to B1, in the assay with BoNT-A C-fragment [1], the koff was determined as 0.0078 s⁻¹ and the kon came to 110000 M⁻¹ s⁻¹. In addition, in the assay with BoNT-A C-fragment [2], the Kd was 71.5 nM.

As a reminder, the koff is the rate constant with which the complex falls apart. A high value points to fast dissociation. In general, kon refers to the rate constant with which the complex forms. In general, Kd refers to the free concentration of one partner at which half of the binding sites on the other are occupied at equilibrium, for simple one-to-one binding.

The values are drawn from patent publication US20050037339A1 (published 2005).
